B1: DP IV activity of the human serum (protein)
chain: SRKTYTLTDYLKNTYRLKLYSLRWISDHEYLYKQENNILVFNAEYGNSSVFLENSTFDEFGHSINDYSISPDGQFILLEYNYVKQWRHSYTASYDIYDLNKRQLITEERIPNNTQWVTWSPVGHKLAYVWNNDIYVKIEPNLPSYRITWTGKEDIIYNGITDWVYEEEVFSAYSALWWSPNGTFLAYAQFNDTEVPLIEYSFYSDESLQYPKTVRVPYPKAGAVNPTVKFFVVNTDSLSSVTNATSIQITAPASMLIGDHYLCDVTWATQERISLQWLRRIQNYSVMDICDYDESSGRWNCLVARQHIEMSTTGWVGRFRPSEPHFTLDGNSFYKIISNEEGYRHICYFQIDKKDCTFITKGTWEVIGIEALTSDYLYYISNEYKGMPGGRNLYKIQLSDYTKVTCLSCELNPERCQYYSVSFSKEAKYYQLRCSGPGLPLYTLHSSVNDKGLRVLEDNSALDKMLQNVQMPSKKLDFIILNETKFWYQMILPPHFDKSKKYPLLLDVYAGPCSQKADTVFRLNWATYLASTENIIVASFDGRGSGYQGDKIMHAINRRLGTFEVEDQIEAARQFSKMGFVDNKRIAIWGWSYGGYVTSMVLGSGSGVFKCGIAVAPVSRWEYYDSVYTERYMGLPTPEDNLDHYRNSTVMSRAENFKQVEYLLIHGTADDNVHFQQSAQISKALVDVGVDFQAMWYTDEDHGIASSTAHQHIYTHMSHFIKQCFSLP
B2: porcine kidney DP IV, wild type (protein)
chain: DSRRTYTLTDYLKSTFRVKFYTLQWISDHEYLYKQENNILLFNAEYGNSSIFLENSTFDELGYSTNDYSVSPDRQFILFEYNYVKQWRHSYTASYDIYDLNKRQLITEERIPNNTQWITWSPVGHKLAYVWNNDIYVKNEPNLSSQRITWTGKENVIYNGVTDWVYEEEVFSAYSALWWSPNGTFLAYAQFNDTEVPLIEYSFYSDESLQYPKTVRIPYPKAGAENPTVKFFVVDTRTLSPNASVTSYQIVPPASVLIGDHYLCGVTWVTEERISLQWIRRAQNYSIIDICDYDESTGRWISSVARQHIEISTTGWVGRFRPAEPHFTSDGNSFYKIISNEEGYKHICHFQTDKSNCTFITKGAWEVIGIEALTSDYLYYISNEHKGMPGGRNLYRIQLNDYTKVTCLSCELNPERCQYYSASFSNKAKYYQLRCFGPGLPLYTLHSSSSDKELRVLEDNSALDKMLQDVQMPSKKLDVINLHGTKFWYQMILPPHFDKSKKYPLLIEVYAGPCSQKVDTVFRLSWATYLASTENIIVASFDGRGSGYQGDKIMHAINRRLGTFEVEDQIEATRQFSKMGFVDDKRIAIWGWSYGGYVTSMVLGAGSGVFKCGIAVAPVSKWEYYDSVYTERYMGLPTPEDNLDYYRNSTVMSRAENFKQVEYLLIHGTADDNVHFQQSAQLSKALVDAGVDFQTMWYTDEDHGIASNMAHQHIYTHMSHFLKQCFSLP

Target: peptides of the growth hormone releasing factor (GRF) family

| Protein | hydrolysis (MALDI-TOF MS, capillary zone electrophoresis) |
| --- | --- |
| B1 | All peptides were hydrolyzed by porcine DP IV, recombinant human DP IV or DP IV activity of the human serum |
| B2 | All peptides were hydrolyzed by porcine DP IV, recombinant human DP IV or DP IV activity of the human serum |

Source: patent US20060234940
